The results in this text go back to patent US20260109747A1.

Experiment in all cases: cell-based or functional assay
Assay [1] deals with cynomolgus monkey IL-2Rα/β/γ (cynomolgus monkey).
The next assay addresses human IL-2Rα/β/γ (human) (UniProt P01589).
For another assay, the target named is human IL-2Rβ/γ (human) (UniProt P14784).
Another assay concerns the target T1, mouse IL-2Rβ/γ (mouse) (UniProt P16297).
T1 sequence (looked up) 1: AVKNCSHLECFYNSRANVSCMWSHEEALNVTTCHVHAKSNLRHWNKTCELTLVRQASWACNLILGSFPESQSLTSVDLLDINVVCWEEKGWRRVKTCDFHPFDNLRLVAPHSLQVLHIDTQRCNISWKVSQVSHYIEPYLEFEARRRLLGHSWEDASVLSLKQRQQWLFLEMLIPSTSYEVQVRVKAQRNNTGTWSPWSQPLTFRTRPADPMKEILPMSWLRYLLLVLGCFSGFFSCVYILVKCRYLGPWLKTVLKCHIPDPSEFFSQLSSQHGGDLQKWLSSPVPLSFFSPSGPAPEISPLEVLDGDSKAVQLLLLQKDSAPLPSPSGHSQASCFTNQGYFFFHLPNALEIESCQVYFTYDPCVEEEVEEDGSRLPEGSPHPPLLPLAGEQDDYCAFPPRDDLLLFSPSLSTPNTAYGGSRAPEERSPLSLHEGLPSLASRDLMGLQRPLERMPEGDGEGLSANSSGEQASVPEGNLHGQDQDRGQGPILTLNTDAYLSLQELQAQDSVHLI
T1 sequence (looked up) 2: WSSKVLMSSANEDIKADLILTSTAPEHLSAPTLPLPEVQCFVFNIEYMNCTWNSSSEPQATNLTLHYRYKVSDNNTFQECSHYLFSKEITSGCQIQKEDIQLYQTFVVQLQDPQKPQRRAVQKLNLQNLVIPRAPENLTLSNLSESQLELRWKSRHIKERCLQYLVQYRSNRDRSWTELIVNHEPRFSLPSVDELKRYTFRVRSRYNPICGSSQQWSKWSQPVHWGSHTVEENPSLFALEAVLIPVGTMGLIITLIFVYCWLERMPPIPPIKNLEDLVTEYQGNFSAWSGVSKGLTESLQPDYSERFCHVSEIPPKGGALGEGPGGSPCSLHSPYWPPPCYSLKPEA

Chain of his-tagged mammalian expressed control human IL-2, compound 13 (P60568 other isoform, or with tags, fused parts or gaps limits assumed): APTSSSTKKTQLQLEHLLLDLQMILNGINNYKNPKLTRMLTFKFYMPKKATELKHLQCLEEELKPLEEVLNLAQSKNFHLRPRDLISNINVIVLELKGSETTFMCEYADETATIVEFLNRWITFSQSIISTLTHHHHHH
Chain of human IL-2Rβ/γ (human) (P14784 27-551, chain 1 of 2): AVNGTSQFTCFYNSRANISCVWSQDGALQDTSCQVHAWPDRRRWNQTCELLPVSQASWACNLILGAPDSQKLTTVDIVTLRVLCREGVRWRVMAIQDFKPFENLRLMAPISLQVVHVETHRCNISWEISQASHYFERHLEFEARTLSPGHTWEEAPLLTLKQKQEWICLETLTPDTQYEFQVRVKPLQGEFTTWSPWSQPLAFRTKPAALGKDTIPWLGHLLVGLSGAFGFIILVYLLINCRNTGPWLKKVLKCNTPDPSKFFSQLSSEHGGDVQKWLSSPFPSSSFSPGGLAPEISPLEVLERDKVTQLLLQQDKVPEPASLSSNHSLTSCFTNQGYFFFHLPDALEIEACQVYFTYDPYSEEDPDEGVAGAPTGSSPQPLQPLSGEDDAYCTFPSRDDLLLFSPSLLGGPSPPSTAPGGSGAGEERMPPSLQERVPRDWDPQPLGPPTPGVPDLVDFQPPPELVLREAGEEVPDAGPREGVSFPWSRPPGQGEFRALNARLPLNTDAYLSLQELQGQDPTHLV
Chain of human IL-2Rβ/γ (human) (P31785 23-369, chain 2 of 2, further chain): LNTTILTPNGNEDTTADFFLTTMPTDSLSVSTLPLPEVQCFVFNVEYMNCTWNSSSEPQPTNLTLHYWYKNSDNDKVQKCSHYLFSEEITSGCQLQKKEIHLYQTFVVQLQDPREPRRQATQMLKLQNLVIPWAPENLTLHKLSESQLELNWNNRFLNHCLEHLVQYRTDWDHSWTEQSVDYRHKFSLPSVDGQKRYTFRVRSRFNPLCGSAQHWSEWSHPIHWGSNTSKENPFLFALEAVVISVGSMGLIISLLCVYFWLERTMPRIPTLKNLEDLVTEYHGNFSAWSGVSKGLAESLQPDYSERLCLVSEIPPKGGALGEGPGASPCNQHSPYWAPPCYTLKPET
Chain of human IL-2Rα/β/γ (human) (P01589 22-272, chain 1 of 3): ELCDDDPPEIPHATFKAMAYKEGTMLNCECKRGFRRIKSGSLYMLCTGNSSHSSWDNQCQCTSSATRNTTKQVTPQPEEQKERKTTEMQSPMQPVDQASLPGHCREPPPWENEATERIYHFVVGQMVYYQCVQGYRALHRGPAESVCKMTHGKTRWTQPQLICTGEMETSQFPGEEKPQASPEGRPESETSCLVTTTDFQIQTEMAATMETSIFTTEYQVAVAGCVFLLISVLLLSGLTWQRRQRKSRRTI
Chain of human IL-2Rα/β/γ (human) (P14784 27-551, chain 2 of 3, further chain): as the sequence (P14784 27-551, chain 1 of 2) above
Chain of human IL-2Rα/β/γ (human) (P31785 23-369, chain 3 of 3, further chain): as the sequence (P31785 23-369, chain 2 of 2, further chain) above

Substance “his-tagged mammalian expressed control human IL-2, compound 13 (from UniProt P60568 21-153) (ligand)” came in with a pSTAT5 EC50, Treg, cynomolgus monkey whole blood in assay [1] of 0.09 ng/mL. The pSTAT5 EC50, Treg, human whole blood with human IL-2Rα/β/γ (human) stood at 0.09 ng/mL. In addition, in the assay with human IL-2Rβ/γ (human), the pSTAT5 EC50, CD8, human blood (additional experiments) was 4.94 ng/mL; the pSTAT5 EC50, CD8, human whole blood was 25.7 ng/mL; the pSTAT5 EC50, NK, human blood (additional experiments) turned out to be 17.6 ng/mL; the pSTAT5 EC50, NK, human whole blood came out at 6.01 ng/mL. Besides, in the assay with mouse IL-2Rβ/γ (mouse), the pSTAT5 EC50, CD8, mouse blood came to 24000 ng/mL and the pSTAT5 EC50, NK, mouse blood stood at 9690 ng/mL.
